± gives the standard error. For part of these data: Variants at the floor of the assay were thinned out.
B1: glmS ribozyme (parent)
chain: AUAAAAGCGCCAGAACUACAGAAAUGUAGUUGACGAGGAGGAGGUUUAUCGAAUUUUCGGCGGAUGCCUCCAAA

Columns and labels:
Conditions in all cases: with glucosamine-6-phosphate
glucosamine-6-phosphate [1] = variants of: B1; experiment: kcat; higher = faster cleavage; RNA array
Method in brief: (§1)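 Barcoded ribozyme variants, transcribed in situ by E. coli RNA polymerase on sequenced MiSeq chips, were followed via a hybridised Cy3 probe at 37 °C. Glucosamine-6-phosphate ranged from 40 μM to 10 mM in HEPES/KCl/Mg(OAc)2 buffer. kobs came from decay fits to per-tile medians, and kcat and KM from weighted Michaelis–Menten fits.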

glucosamine-6-phosphate [2] = variants of: B1; experiment: KM; higher = weaker cofactor use; RNA array
Method in brief: as §1

glucosamine-6-phosphate [3] = variants of: B1; experiment: self-cleavage kobs at 640 uM GlcN6P; higher = faster cleavage; RNA array
Method in brief: as §1

glucosamine-6-phosphate [4] = variants of: B1; experiment: self-cleavage kobs at 2500 uM GlcN6P; higher = faster cleavage; RNA array
Method in brief: as §1

glucosamine-6-phosphate [5] = variants of: B1; experiment: self-cleavage kobs at 10000 uM GlcN6P; higher = faster cleavage; RNA array
Method in brief: as §1

glucosamine-6-phosphate [6] = variants of: B1; experiment: self-cleavage kobs at 160 uM GlcN6P; higher = faster cleavage; RNA array
Method in brief: as §1

glucosamine-6-phosphate [7] = variants of: B1; experiment: self-cleavage kobs at 40 uM GlcN6P; higher = faster cleavage; RNA array
Method in brief: as §1

Row | Variant | kcat (glucosamine-6-phosphate [1]) [s⁻¹] | KM (glucosamine-6-phosphate [2]) [µM] | self-cleavage kobs at 640 uM GlcN6P (glucosamine-6-phosphate [3]) [s⁻¹] | self-cleavage kobs at 2500 uM GlcN6P (glucosamine-6-phosphate [4]) [s⁻¹] | self-cleavage kobs at 10000 uM GlcN6P (glucosamine-6-phosphate [5]) [s⁻¹] | self-cleavage kobs at 160 uM GlcN6P (glucosamine-6-phosphate [6]) [s⁻¹] | self-cleavage kobs at 40 uM GlcN6P (glucosamine-6-phosphate [7]) [s⁻¹]
1 | AUAAAGGCGCCAGUACUACAGAAAUGUAGUUGACGAGGAGGAGGUUUAUCGAAUUUUCGGCGGAUGCCUCCAAA [A6G A14U] | 0.000128 ± 4.9e-06 | 1370 ± 180 | 3.84e-05 ± 1e-05 | 8.77e-05 ± 1.3e-05 | 0.000111 ± 1.1e-05 |  | 
2 | AUAAAAGCGCCAGAACUACAGAAAUGUAGUUGACGAGGAGGAGGUUUAUCGAAUUUUCGGCGGAUGAGUCCAAA [C67A C68G] | 4.23e-05 ± 1e-05 |  | 5.98e-05 ± 1.7e-05 | 5.59e-05 ± 1.3e-05 | 2.51e-05 ± 1.1e-05 | 4.13e-05 ± 1.5e-05 | 
3 | AUAAAAGCGCCAGAACUACAGAAAUGUAGUUUACGAGGAGGAGGUUUAUCGAAUUUUCGGCGGAUGUCUCCAAA [G32U C67U] | 0.00034 ± 4.6e-05 | 1790 ± 580 | 0.000104 ± 1.3e-05 | 0.000166 ± 2.2e-05 | 0.000303 ± 2.5e-05 |  | 
4 | AUAAAAGCGCCAGAACUACAGAAAUGUAGUUGACGAGGAGGAGGUUUAUCGAAUUUUCGGCGGAUGACCCCAAA [C67A U69C] | 0.00359 ± 0.0017 |  | 0.0019 ± 0.00079 |  | 0.00665 ± 0.0025 |  | 0.000527 ± 0.00011
5 | AUAAAAGCGCCAGAACUACAAAAAUGUAGUUGACGAGGAGGAGGUUUAUCGAAUUUUGGGCGGAUGCCGCUAAA [G21A C58G U69G C71U] | 4e-05 ± 1e-05 |  | 4.19e-05 ± 1.7e-05 | 3.42e-05 ± 1.6e-05 |  | 5.48e-05 ± 1.6e-05 | 
6 | AUAAAAGCGCCAGAACUACAGAAAUGUAGUUGACGAGGAGGAGGUUUAUCGAAUUUUCGGUGGAUACCUCCAAA [C61U G66A] | < 1e-05 |  | < 1e-05 |  |  |  | 
7 | AUAAAAGCGCCAGAACUACAGAAAUGUAGUUGACGAGGAGGAGUUUUAUCGAAUUUUCGGCGGAUACCUCCAAA [G44U G66A] | 0.000401 ± 9.1e-05 |  | 0.000153 ± 3.3e-05 | 0.000236 ± 4.4e-05 | 0.000438 ± 0.0001 |  | 
8 | AUAAAAACGCCAGAACUACAGAAAUGUAGUUGACGAGGAGGAGGUUUAUCGAAUUUUCGGCUGAUGCCUCCAAA [G7A G62U] | < 1e-05 |  | < 1e-05 |  | < 1e-05 |  | < 1e-05
9 | AUAAAGGCGCCAGAACUACAGAAAUGUAGUUGACGAGGAGGAGGUUUAUCGAACUUUCGGCGGAUGCCUCCAAA [A6G U54C] | 0.000547 ± 9.2e-05 | 2590 ± 710 | 0.0001 ± 1.3e-05 | 0.000351 ± 7.7e-05 | 0.000427 ± 5.3e-05 | 4.65e-05 ± 1.2e-05 | 
10 | AUAAAAGCGCCAGAACUACAGAAAUGUAGUUGACGAAGAGGAGGUUUAUAGAAUUUUCGGCGGAUGCCUCCAAA [G37A C50A] | 1.38e-05 ± 4.6e-06 |  |  |  |  |  | 
11 | AUAAAAGCGCCAGAACUACAGAAAUGUAGUUGACGAGGAGGAGGUUCAUCGAAUUUUCGGCGGAUGCCUUCAAA [U47C C70U] | 0.00786 ± 0.0023 | 2070 ± 790 | 0.00151 ± 0.00028 | 0.00519 ± 0.00095 | 0.00635 ± 0.0016 | 0.000483 ± 0.00014 | 0.000179 ± 2.6e-05
12 | AUAAAAGCGCCAGAACUACAGAAAUGUAGUCGACGAGGAGGAGGUUUAUCGAAGUUUCGGCGGAUGCCUCCAAA [U31C U54G] | 0.00413 ± 0.0012 | 1770 ± 710 | 0.00116 ± 0.00017 | 0.00211 ± 0.0004 | 0.00388 ± 0.00065 | 0.000283 ± 4.9e-05 | 0.000143 ± 2.5e-05
13 | AUAAAAGCGCCAGAACUACAGAAAUGUAGUUGACGAGGAGGAGGUUUAUCGAACUUUCUGCGGAUGCCUCCAAA [U54C G59U] | 4.57e-05 ± 2.2e-05 |  |  |  | 2.45e-05 ± 1.2e-05 |  | 
14 | AUAAAAGCGCCCGAACUACAGAAAUGUAGUUGACGAGGAGGAGGUUUAUCGAAUUUUGGGCGGAUGCCUCCAAA [A12C C58G] | 0.0002 ± 2.6e-05 | 1730 ± 640 | 6.55e-05 ± 1.8e-05 | 0.000106 ± 1.8e-05 | 0.000177 ± 2.2e-05 |  | 
15 | AUAAAAGCGCCAGAACUACAGAAAUGUAGUUGACGAGGAGGUGGUUUAUCGAAAUUUCGGCGGAUGCCUCCAAA [A42U U54A] | 0.000282 ± 2.2e-05 | 1890 ± 340 | 6.94e-05 ± 9.8e-06 | 0.000177 ± 2e-05 | 0.000231 ± 2e-05 |  | 
16 | AUAAAAGCGCCAGAACUACAGAAAUGUAGUUGACGAGGAUGAGGUUUAUCGAAUUUUCGGCGGAAGCCUCCAAA [G40U U65A] | 0.000363 ± 4.2e-05 | 735 ± 170 | 0.000191 ± 3.7e-05 | 0.000235 ± 6.9e-05 | 0.000352 ± 7e-05 | 6.26e-05 ± 1.5e-05 | 
17 | AUAAAAGCGCCAGAACUACAGAAAUGUAGAUGACGAGGAGGAGGUUUAUCGAAUUUUGGGCGGAUGCCUCCAAA [U30A C58G] | 5.56e-05 ± 1.8e-05 |  |  | 8.28e-05 ± 2.5e-05 | 4.77e-05 ± 1.1e-05 |  | 
